Measured values: the nanobody polyreactivity screen of Harvey et al. (2022)

Assay: yeast display, Sf9 membrane polyspecificity reagent, FACS + sequencing; frameworks hold sequencing errors
In short: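 Nanobodies came from a synthetic yeast display library in Saccharomyces cerevisiae BJ5465, induced with galactose for 36–48 hours and stained for 1 hour at 4 °C with 10% biotinylated, detergent-solubilized Sf9 membrane reagent. Cells were enriched on streptavidin microbeads and then FACS-sorted, with low and high (top ~1%) gates set on anti-HA fluorescence for expression and streptavidin fluorescence for reagent binding. Each polyreactivity label reflects the gate a clone came from. Genes were amplified by colony PCR, sequenced by MiSeq 2 × 250 and filtered by CDR length.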

Row | Sequence | polyreactivity (PSR sort gate)
1 | QDQLVESGGGLVQAGGSLRLSCAASGIILRYYVMGWYRQAPGKERELVAAITSRGGSTYYADSVKGRFTISRDNAKNTVYLQMNSLKPEDTAVYYCAAGYRNVNTFDYWGQGTQVTVSS | high polyreactivity
2 | QDQLVESGGGLVQAGGSLRLSCAASGILDRYAMGWYRQAHGKERELFAAISYIAGSTYYADSVKGRFTISRDNAKNTVYLQLNSLKPEVTAVYYCAARGFGTVNGKLYGYWGQGTQVTVSS | high polyreactivity
3 | QDQLVESGGGLVQAGGSLRLSCAASGITFAYYVMGWYRQATGKERELVAAISRSGSTYYADSVKGRFTISRDNAKNTVYLQMNSLKPEDTAVNYCAVLYIRWYTYEYWGQGTQVTVSS | high polyreactivity
4 | QDQLVESGGGLVQAGGSLRLSCAASGITFSGNAKGCYRQAPGKETELVAAISRNGGRTYYADSVKGRFTISRDNAKNTVYLQMNSLKQEDTAVYYCAKDAYGYFRVSAWYYTYDYWGQGTQVTVSS | high polyreactivity
5 | QDQLVESGGGLVQAGGSLRLSCAASGITIYRYVMGCSRQAPGKEREFVASITQSTGSTHYADSVKGRFTISRDNAKNTVYLQMNSLKPEDTAVYYCNAQKIVYYWVTLFPYYYWGQGTQVTVSS | low polyreactivity
6 | QDQLVESGGGLVQAGGSLRLSCAASGLIFFFYPMGWYRQAPGKERELVASISGGGITYYADSVKGRFTISRDNAKNTVYLQMNSLKQEDTPVIKNDYWGQGTQVTLSS | low polyreactivity
7 | QDQLVESGGGLVQAGGSLRLSCAASGLSFASYVMGWYRQAPGKERELVAAISSSGDSTYYADSVKGRFTLSRDNAKNTVYLQMNSLKPEDTAVYYCAAKDYVWGQGTQVTVSS | low polyreactivity
8 | QDQLVESGGGLVQAGGSLRLSCAASGLTFKRNAMGWYRQAPVKERELVAAIRYSTDSTNYADSVKGRFTISRDNAKNTVYLQLNSMNPEDTAVYYCAKDKQDYEYWGQGTQVTVSS | low polyreactivity
9 | QDQLVESGGGLVQAGGSLRLSCAASGLTFLWYNMGWYRPAPGKERELVAGITWSGGSTYYADSVKGRFTISRDNAKNTVYLQMNSLKPEDTAVYYCAASFLWKVTGEYYYWGQGTQVTVSS | high polyreactivity
10 | QDQLVESGGGLVQAGGSLRLSCAASGLTFTYYAMGWYRQAPGKERELVAAMTWNGGRTYYADSVKGRFTISRDNAKNTVYLLMNSLKPEDTAVYYCNARYILSSSGFGYWRQGTQVTVSS | high polyreactivity
11 | QDQLVESGGGLVQAGGSLRLSCAASGLTFYQYDMGWYRQAPGKERELVAAISRSGGRTYYADSVKGRFTISRDIAMITVYLQMNSLKPEDTAVYYCARPDKRLEYSENYYWGQGSQVTVSS | high polyreactivity
12 | QDQLVESGGGLVQAGGSLRLSCAASGLTLKENVMGWYRQAPGKERELFAAISTGASTYYADSVKGRFTISRDNAKNTVYLQMNSLKPEDTAVYYCAKRVTPWYGYWGQGTQVTVSS | high polyreactivity
13 | QDQLVESGGGLVQAGGSLRLSCAASGNIFCYYVMGWYRQAPGKERELVAAITWSGGTTNYADSVKGRFTISRDNAKNTVYLQMNSLKPDDTAVYDCATDRYAYKLYDYWGQGTQVTVSS | low polyreactivity
14 | QDQLVESGGGLVQAGGSLRLSCAASGNIIRKYAMGWYRQAAGKEREFVAAISSSGGRTYYADSVKGRFTISRDNAKNTVYLQMNSLKPEDTAVYYCAAEDWSYYDYDYWGQGTQVTVSS | high polyreactivity
15 | QDQLVESGGGLVQAGGSLRLSCAASGRIFDDTAMGWSRPAPGKERELVAAITGGGRTNYADSVKGRFTISRDNAKNTVYLQMNSLKPEDTAVYYCAAATYGWVIYIYDYWGQGTQVTVSS | low polyreactivity
16 | QDQLVESGGGLVQAGGSLRLSCAASGRIFDYNVMGWYRQAPGTEREFVADINGSGGGTNYADSVKGRFTISRDNAKNTVYFLMNSLKPEDTAVSYCNADSYEYHVPYYDYRYDYWGQGTQVTVSS | low polyreactivity
17 | QDQLVESGGGLVQAGGSLRLSCAASGRIFYFNTMGWSRQAPGKERELVAAISKNGGSTYYADSVKGRFTISRDIAKNTVYLQMNSLKPEDTAVYYCAKTRRLSPYDYWGQGTQVTVSS | high polyreactivity
18 | QDQLVESGGGLVQAGGSLRLSCAASGRIIQYYDMGWYRQAPGKERELVAAITSNGGRTYYADSVKGRFTISRDNAKNTVFLLMNILKPEDTAVYYCAKTFDFSAYPPLTLKYGYWGQGTQVTVSS | high polyreactivity
19 | QDQLVESGGGLVQAGGSLRLSCAASGRILGSNTMGWDRQAPGKERELVAAITSAGNTNYADSVKGRFTISRDNAKNTVYLQMNSLKPEDTAVYYCNVRGQRLYYRVRRLYDYWGQGTQVTVSS | high polyreactivity
20 | QDQLVESGGGLVQAGGSLRLSCAASGRILINNAMVWYRQAPGKERELVARITRGGRTNYADSVNGRFTISRDNPKNTDYFQMYCPKPVDTAVYDCNAEYVTPYYYGFGAKRDYWGQGTQVTVSS | low polyreactivity
21 | QDQLVESGGGLVQAGGSLRLSCAASGRINAMGWYRQAPGKERELVAVITLRGGSTYYADSVKGRFTISRDNAKNTVYLQMNSLKPEDTAVYYCAAETLVSFWFDYWGQGTQVTVSS | low polyreactivity
22 | QDQLVESGGGLVQAGGSLRLSCAASGRNFELYAMGWYRPAPRKERELVATISGSGGSTYYADSVKGRFTISRDNAKNTVYLQMNSLKPEDTAVFYCAKNAYGYYYSRSDDWGQGTQVTVSS | low polyreactivity

Row | Sequence | polyreactivity (PSR sort gate)
23 | QDQLVESGGGLVQAGGSLRLSCAASGRNFGYYTRGWYRQAPGKERELVATINWSGGNTYYADSVKGRFTISRDNAKNTVYLQMTCLKPEDTAVYYCATRSRAPQQVYYQNYDYWGQGTQVTVSS | high polyreactivity
24 | QDQLVESGGGLVQAGGSLRLSCAASGRNFSFNPMGLYRQAPGKERELVATIRTDGTTNYADSVKGRFTISRDNAKNTVYVQMNSLKPEDTAVYYCAADSAYHRRRMYYWGQGTQVTVSS | high polyreactivity
25 | QDQLVESGGGLVQAGGSLRLSCAASGRTFFWNAMGWYRPAPGKERELVAAITWSGGSTYYADSVKGRFTISRDNAKNTVYLQMNSLKPEDPAVYYCAAVVTDYVWRSEYWGQGTQVTVSS | low polyreactivity
26 | QDQLVESGGGLVQAGGSLRLSCAASGRTFHLYAMGWYRPAPGKERELVAAIRWTGVSTYYADSVKGRFTISRDNAKNTVYLEMNSLKPEDTAVYYCATKQRYRVSRDWSSYCYGYWGQGTQVTVSS | high polyreactivity
27 | QDQLVESGGGLVQAGGSLRLSCAASGRTFKTYAMGWYRQAPGKERELVAAISYSSGRTYYADSVKGRFTISRDNAKNTVYLQMNSLKPEDTAVYYCASLGSGVPRYYYWGQGTQVTVSS | high polyreactivity
28 | QDQLVESGGGLVQAGGSLRLSCAASGRTFPWYAMGWYRPAPGKERELVAAISTGGSRTYYADSVKGRFTISRDNAKNTVYLQMNSLKPEDTAVYYCNARNTLRDYPYGYWGQGTQVTVSS | high polyreactivity
29 | QDQLVESGGGLVQAGGSLRLSCAASGRTFRYNAMGWYRQAPGKERELVAAISGRGSSTYYADSVKGRFTISRDNAKNTVYLQMNSLKPEETAVYYCAALPASVRRPGWHDYWGQGTQVTVSS | high polyreactivity
30 | QDQLVESGGGLVQAGGSLRLSCAASGRTFTYYAMGWYRQAPGKDRELDAGISSGGGSTYYADSVKGRFTISRDHAKNTVYLQMNSLKPEDTAVYYCATAKRQGGYSEYDYWGQGTQVTVSS | high polyreactivity
31 | QDQLVESGGGLVQAGGSLRLSCAASGRTFYKYAMGWYRQAPGKERELVAAIRTGGGTSYADSVKGRFTISRDNAKNTVYLQMNSLKPEDTAVYYCNARGVYFWWRLDYWGQGTQVTVSS | low polyreactivity
32 | QDQLVESGGGLVQAGGSLRLSCAASGRTIYQNAMGWYRQAPGKERELVAAISRSGGSTYYADSVKGRFTISRDNAKNTVYLQMNSLKPEDTAVYYCAADPRSYGGGYDYWGQGPQVTVSS | high polyreactivity
33 | QDQLVESGGGLVQAGGSLRLSCAASGSIFFARYSMGWYTQAPGKERELVAAITRATSTTYADSVKGRFTISRDNAKNTVYLQMKSLKPEDTAVYYCNADPAYQFDYWGQGTQVTVSS | high polyreactivity
34 | QDQLVESGGGLVQAGGSLRLSCAASGSIFFLYAMGWYRQAPGKERELVAAIRLSGGSTYYADSVKGRFTISRDNAKNTVYLQMNSLKPEDTAVYYCAAESAAASAVYSVEYDYWGQGTQVTVSS | low polyreactivity
35 | QDQLVESGGGLVQAGGSLRLSCAASGSIFGKYTMGWYRQAPGKERELVAAISRSGSSTYYADSVKGRFTISRDNAKNTVYLQMNSLKPEDTAVYYCAAKFYYGVTSKFESWGQGTQVTVSS | high polyreactivity
36 | QDQLVESGGGLVQAGGSLRLSCAASGSIFPRYDMGWYRQAPGKERELVAAITGSGSSTYYADSVKGRFSISRDNAMNTVYLQMNSLKPEDTAGYYCAARKSRPPFPPPFDYYWRQGTQVTVSS | low polyreactivity
37 | QDQLVESGGGLVQAGGSLRLSCAASGSIFPYNAMAWSRQAPGTERELVAGITYNGGSTYYADSVKGRFTISRDNAKNTVYLQMNSLKREDTAVYYCAAAGRRAFYRYDHWGQGTQVTVSS | high polyreactivity
38 | QDQLVESGGGLVQAGGSLRLSCAASGSIFRAYAMGRYRQPPGKERELVAAIIWTDGSTYYADSVKGRFTISRDNAKNTVYLQMNSLKPEDTAVYYCAKDSIARHNYWGQGTQVTLSS | low polyreactivity
39 | QDQLVESGGGLVQAGGSLRLSCAASGSIFRYYDMGWSRQAPGKERELVAAISDSTGTTYYADSVKGRFTISRDNAKNTVYLQMNSLKPEDTAVYYCNTAYNRYWRPFNSLYYWGQGTQVTVSS | high polyreactivity
40 | QDQLVESGGGLVQAGGSLRLSCAASGSIFSTNAMGWYRQAPGKERELVAAITYSGSRTYYADSVKGRFTISRDTAKNTVFLQMNSLKPEDTAVYYCAADTSWYSWWFDYWGQGTQVTVSS | low polyreactivity
41 | QDQLVESGGGLVQAGGSLRLSCAASGSIFSYYAMGWYRHAPAKDRELVAAITGVGGTNYADSVKGRFTISRDNAKNTVYLQMNSLKPEDTAVYYCAARQYWRRYQYYYWGQGTQVTVSS | high polyreactivity
42 | QDQLVESGGGLVQAGGSLRLSCAASGSIFTDNVMGWYRQATGKERELVAAITSTGGNTYYADSVKGRFTISRDNAKNTVYLQMNSLKREDTAVYYSNKDVARYPYGKFDYWGQGTQVTVSS | low polyreactivity
43 | QDQLVESGGGLVQAGGSLRLSCAASGSIFVHYVMGWYRQAPGKERELVAAISSRGGGTFYADSVKGRFTISRDNAKNTVYLQMNSLKPEDTAVSYCARVPYFGSGAIRDYWGQGTQVTVSS | high polyreactivity
